Data taken from publication PMC4027165, “SAXS analysis of the tRNA-modifying enzyme complex MnmE/MnmG reveals a novel interaction mode and GTP-induced oligomerization” (Nucleic Acids Research, 2014).
Substitutions are numbered along the chain they refer to.

How the values were obtained:
[1] = biological target: the molecule itself; experiment: SEC-MALS; E. coli MnmG alone, at all concentrations used (Supplementary Figure S2(D))
[2] = biological target: T1, MnmE from Escherichia coli, wild type (Escherichia coli, UniProt P25522 1-454); experiment: ITC; 278 K; 20 mM Hepes pH 7.5, 150 mM NaCl, 5 mM MgCl2, 2 mM BME, 1 mM FAD; 15 uM in the cell, 300 uM in the syringe; titrated in both directions; one site model; apparent; details: both partners purified
T1 construct: tRNA modification GTPase MnmE (formerly TrmE), Escherichia coli; open reading frame cloned in a pET20 vector; Homodimer of about 50-kDa subunits; Used nucleotide-free, with GDP-AlFx or with GppNHp depending on the experiment; also called TrmE; MnmE wt
T1 sequence (looked up): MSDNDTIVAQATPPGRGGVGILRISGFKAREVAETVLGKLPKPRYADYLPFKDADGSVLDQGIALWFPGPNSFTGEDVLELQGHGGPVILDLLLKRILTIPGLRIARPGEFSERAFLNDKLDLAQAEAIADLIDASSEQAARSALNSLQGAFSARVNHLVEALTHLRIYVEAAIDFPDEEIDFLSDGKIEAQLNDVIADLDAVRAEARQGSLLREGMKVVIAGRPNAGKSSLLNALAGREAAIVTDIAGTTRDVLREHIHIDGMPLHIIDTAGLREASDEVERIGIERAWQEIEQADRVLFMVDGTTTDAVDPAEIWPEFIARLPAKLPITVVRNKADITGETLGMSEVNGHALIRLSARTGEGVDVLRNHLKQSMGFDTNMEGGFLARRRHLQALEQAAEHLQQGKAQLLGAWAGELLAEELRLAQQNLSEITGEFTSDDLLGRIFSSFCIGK

[3] = biological target: T2, MnmE (Y169A, D175A and F176A) (Escherichia coli, UniProt P25522 1-454, Y169A | D175A | F176A); experiment: ITC; MnmG in syringe, MnmE mutant in cell
T2 sequence: T1 sequence (looked up) with Y169A, D175A, F176A

MnmE (T434A and D440A) [4] = biological target: T3, MnmE (T434A and D440A) (Escherichia coli, UniProt P25522 1-454, T434A | D440A); experiment: ITC; MnmG in syringe, MnmE mutant in cell
T3 sequence: T1 sequence (looked up) with T434A, D440A

[5] = biological target: T4, MnmE (Y169A, D175A and F176A) with additional S153A (Escherichia coli, UniProt P25522 1-454, S153A | Y169A | D175A | F176A); experiment: ITC; MnmG in syringe, MnmE mutant in cell
T4 sequence: T1 sequence (looked up) with S153A, Y169A, D175A, F176A

[6] = biological target: T2, MnmE (Y169A, D175A and F176A); experiment: ITC; MnmE mutant in syringe, MnmG in cell
MnmE (T434A and D440A) [7] = biological target: T3, MnmE (T434A and D440A); experiment: ITC; MnmE mutant in syringe, MnmG in cell
[8] = biological target: T4, MnmE (Y169A, D175A and F176A) with …; experiment: ITC; MnmE mutant in syringe, MnmG in cell

B1: MnmG from Escherichia coli, wild type (enzyme, UniProt P0A6U3 1-629, looked up)
chain: MFYPDPFDVIIIGGGHAGTEAAMAAARMGQQTLLLTHNIDTLGQMSCNPAIGGIGKGHLVKEVDALGGLMAKAIDQAGIQFRILNASKGPAVRATRAQADRVLYRQAVRTALENQPNLMIFQQAVEDLIVENDRVVGAVTQMGLKFRAKAVVLTVGTFLDGKIHIGLDNYSGGRAGDPPSIPLSRRLRELPLRVGRLKTGTPPRIDARTIDFSVLAQQHGDNPMPVFSFMGNASQHPQQVPCYITHTNEKTHDVIRSNLDRSPMYAGVIEGVGPRYCPSIEDKVMRFADRNQHQIFLEPEGLTSNEIYPNGISTSLPFDVQMQIVRSMQGMENAKIVRPGYAIEYDFFDPRDLKPTLESKFIQGLFFAGQINGTTGYEEAAAQGLLAGLNAARLSADKEGWAPARSQAYLGVLVDDLCTLGTKEPYRMFTSRAEYRLMLREDNADLRLTEIGRELGLVDDERWARFNEKLENIERERQRLKSTWVTPSAEAAAEVNAHLTAPLSREASGEDLLRRPEMTYEKLTTLTPFAPALTDEQAAEQVEIQVKYEGYIARQQDEIEKQLRNENTLLPATLDYRQVSGLSNEVIAKLNDHKPASIGQASRISGVTPAAISILLVWLKKQGMLRRSA
notes: tRNA uridine 5-carboxymethylaminomethyl modification enzyme MnmG (formerly GidA), Escherichia coli; open reading frame cloned in a pET14b vector; Homodimer of 70-kDa subunits; also called GidA; MnmG wt
With B1 the “stoichiometry N” value [1] was 2, the “stoichiometry N” value [2] was 1 and the Kd [3] was 11.4 µM. The Kd (MnmE (T434A and D440A) [4]) was 9.4 µM, the Kd [5] was 29.9 µM and the Kd [6] was 12 µM. It also gave a Kd (MnmE (T434A and D440A) [7]) of 11.2 µM and a Kd [8] of 12.9 µM.
